Source: PMC7253601, “Rules of Expansion: an Updated Consensus Operator Site for the CopR-CopY Family of Bacterial Copper Exporter System Repressors” (mSphere, 2019)

B1: Streptococcus thermophilus CopY (natural protein, S. thermophilus, UniProt Q5M352 1-143, looked up)
chain: MLAISSAEWEVMRVLWAKGQATSSEIIEILAKKLDWSASTVKTLIGRLADKGYLTSQRQGRGFIYQASLGEDEAIFQALEAVFDKICLTKHSDLLGQLIAKTPMTQADVDKLQALLLAKVPVDQVVCDCVPGQCACGHHMEVN
notes: CopY (CopR-CopY family cop operon repressor), Streptococcus thermophilus; cloned from genomic DNA; also called S. thermophilus cop operon repressor; CopR-CopY; source: recombinant (pMCSG7 vector), purified (IMAC, TEV cleavage, subtractive IMAC, SEC); not shown: His6, N-terminal, cleaved
B2: Enterococcus hirae CopY E86D (natural protein)
chain: MEEKRVLIKISDSEWEVMRVIWTLGQANAQQITQILADSMDWKVATVKTLLGRLVKKEALWTEQEGKKFIYHPAVSEMENVRSATDNLFSHICAKRVGATIADLVEEATLTQEDIQQIMKQLNKKEPVETIECNCIPGQCECKKQ
notes: CopY, cop operon repressor, Enterococcus hirae; cloned from genomic DNA; the methods call the gene copR; The wild type was cut by TEV inside the protein and was used uncleaved; also called E. hirae cop repressor; cleaved E86D protein; source: recombinant (pMCSG7 vector), purified (IMAC, TEV cleavage, subtractive IMAC, SEC); not shown: His6, N-terminal, cleaved
B3: wild type two-operator DNA (BLI) (dsDNA)
DNA 1: TAATTGACAAATGTAGATTTTAAGAGTATACTGATGAGTGTAATTGACAAATGTAGATTTT
DNA 2: AAAATCTACATTTGTCAATTACACTCATCAGTATACTCTTAAAATCTACATTTGTCAATTA
B4: SP_0090 2 (dsDNA)
DNA 1: GAGTATACTAATAATGTAATCGTTATC
DNA 2: GATAACGATTACATTATTAGTATACTC
B5: SP_2073 (dsDNA)
DNA 1: AAGGCGGAAACATGTGTCAATGACTTG
DNA 2: CAAGTCATTGACACATGTTTCCGCCTT
B6: SP_0045 (dsDNA)
DNA 1: GGTGAACTAACAGATGTTTACGAAATT
DNA 2: AATTTCGTAAACATCTGTTAGTTCACC
B7: SP_1863 (dsDNA)
DNA 1: ATGAATAAAACAATTGTAACACTCATC
DNA 2: GATGAGTGTTACAATTGTTTTATTCAT
B8: SP_1433 (dsDNA)
DNA 1: GTAATTATAACAGATGTATAATAGAAA
DNA 2: TTTCTATTATACATCTGTTATAATTAC
B9: SP_0530 (dsDNA)
DNA 1: ATTTGAGGAACAAATGTACGTTTATAA
DNA 2: TTATAAACGTACATTTGTTCCTCAAAT
B10: SP_0090 1 (dsDNA)
DNA 1: TGATTTAGGACATTTGTTTGATAGTGG
DNA 2: CCACTATCAAACAAATGTCCTAAATCA

Target: the molecule itself
Assay: SEC; Superdex 200; 20 mM Tris (pH 8), 200 mM NaCl, 1 mM TCEP; elution volume compared to an SEC standard (Bio-Rad); on ice or at 4°C
Settings: not given

Q: How did the “stoichiometry N” value turn out when B1 was run?
A: 2

Q: How did the “stoichiometry N” value turn out when B2 was run?
A: 2

target: Streptococcus pneumoniae CopY (S. pneumoniae); assay: as above; settings: not given

Q: How did the stoichiometry N turn out when “Streptococcus pneumoniae CopY (natural protein)” was run?
A: 2

target: CopY (S. pneumoniae) (Streptococcus pneumoniae (TIGR4?)) (UniProt A0ACD7PQP7); assay: BLI; settings: BLI: 50 mM Tris pH 7.4, 150 mM NaCl, 4% glycerol, 1 mM TCEP, 0.1% BSA, 26 C; EMSA: Tris-borate without EDTA, 4 C, 5% PAGE

Q: With “16 bp (16 of 21 repeat bases kept: ATTGACAAATGTAGAT)” as the molecule, how does the Kd read?
A: 360 nM

Q: Which Kd does the source give for E. hirae proximal operator here?
A: 164 nM

Q: With full palindrome (A13C) as the molecule, how does the Kd read?
A: 39.6 nM

Q: 14 bases (14 of 21 repeat bases) was tested. Which Kd did it give?
A: > 3000 nM

Q: For 19 bp T to C (operator position 3), which Kd is on record?
A: 40.4 nM

Q: 19 bp (19 of 21 repeat bases) was tested. Which Kd did it give?
A: 37.1 nM

target: T1, CopY (S. pneumoniae) (Streptococcus pneumoniae, UniProt A0ACD7PQP7 1-131); assay: BLI; BLI: 50 mM Tris pH 7.4, 150 mM NaCl, 4% glycerol, 1 mM TCEP, 0.1% BSA, 26 C; EMSA: Tris-borate without EDTA, 4 C, 5% PAGE; settings: protein: recombinant; tags: N-terminal 6xHis removed by TEV (pMCSG7; also tested uncleaved); chain copies: 2; label: 5' biotin on forward strand; blunt

Q: With B3 as the molecule, how does the Kd read?
A: 28.1 ± 0.2 nM

target: T1, CopY (S. pneumoniae); assay: BLI; 3 uM CopY; BLI: 50 mM Tris pH 7.4, 150 mM NaCl, 4% glycerol, 1 mM TCEP, 0.1% BSA, 26 C; EMSA: Tris-borate without EDTA, 4 C, 5% PAGE; settings: protein: recombinant; tags: N-terminal 6xHis removed by TEV (pMCSG7; also tested uncleaved); chain copies: 2; label: 5' biotin on forward strand; blunt

Q: Does B4 bind?
A: no binding

Q: Does B5 bind?
A: no binding

Q: Does B6 bind?
A: no binding

Q: Does B7 bind?
A: no binding

Q: Does B8 bind?
A: no binding

Q: Does B9 bind?
A: no binding

Q: Does B10 bind?
A: no binding
